Patent publication US6428985 (REGENTS OF THE UNIVERSITY OF MICHIGAN, dated 2002)

T1: mIL-10R1 on Ba/F3-mIL-10R1 cells (mouse pro-B cell line stably transfected with mIL-10R1) (murine, UniProt Q61727 17-575)
T1 construct: whole, on cells; also called IL-10 receptor
T1 sequence (looked up): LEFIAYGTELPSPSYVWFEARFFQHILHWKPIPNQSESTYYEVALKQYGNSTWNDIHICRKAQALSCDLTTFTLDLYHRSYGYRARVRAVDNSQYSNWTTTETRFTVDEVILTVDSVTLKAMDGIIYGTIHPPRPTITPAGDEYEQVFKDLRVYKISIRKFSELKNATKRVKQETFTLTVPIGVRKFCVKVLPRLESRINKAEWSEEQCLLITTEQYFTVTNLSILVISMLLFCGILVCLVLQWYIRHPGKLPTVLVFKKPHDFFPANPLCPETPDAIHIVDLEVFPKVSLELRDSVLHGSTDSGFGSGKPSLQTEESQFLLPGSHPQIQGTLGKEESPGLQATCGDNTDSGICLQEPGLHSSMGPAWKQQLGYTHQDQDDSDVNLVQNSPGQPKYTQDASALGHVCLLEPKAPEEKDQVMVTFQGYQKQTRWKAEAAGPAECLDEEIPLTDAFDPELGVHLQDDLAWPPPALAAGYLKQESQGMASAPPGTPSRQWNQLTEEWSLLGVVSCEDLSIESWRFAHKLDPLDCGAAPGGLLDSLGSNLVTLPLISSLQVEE


Assays:
[1] = molecular target: T1, mIL-10R1 on Ba/F3-mIL-10R1 cells (mouse …); experiment: flow cytometry on Ba/F3-mIL-10R1 cells, 100 ng purified IL-10-myc-his, 4° C. for 2 h
[2] = molecular target: T1, mIL-10R1 on Ba/F3-mIL-10R1 cells (mouse …); experiment: flow cytometry on Ba/F3-mIL-10R1 cells

Row | Binder | binding result [1] | binding result [2]
1 | purified hIL-10-myc-his (human IL-10 with carboxyl terminal myc-his tag) (ligand, also called C-terminal myc-his tagged hIL-10; not shown: C-terminal myc-his tag from the pcDNA3.1-myc-his vector) SPGQGTQSENSCTHFPGNLPNMLRDLRDAFSRVKTFFQMKDQLDNLLLKESLLEDFKGYLGCQALSEMIQFYLEEVMPQAENQDPDIKAHVNSLGENLKTLRLRLRRCHRFLPCENKSKAVEQVKNAFNKLQEKGIYKAMSEFDIFINYIEAYMTMKIRN | binds | –
2 | hIL-10 with amino terminal FLAG tag (pFLAGCMV-1 construct) (ligand, not shown: small tags and cut ends, also called amino terminal FLAG construct of hIL-10) SPGQGTQSENSCTHFPGNLPNMLRDLRDAFSRVKTFFQMKDQLDNLLLKESLLEDFKGYLGCQALSEMIQFYLEEVMPQAENQDPDIKAHVNSLGENLKTLRLRLRRCHRFLPCENKSKAVEQVKNAFNKLQEKGIYKAMSEFDIFINYIEAYMTMKIRN | – | binds
3 | purified hIL-10(I87A)-myc-his (human IL-10 with the single mutation, carboxyl terminal myc-his tag) (ligand, also called hIL-10(187A); Ala87 version of IL-10; not shown: C-terminal myc-his tag from the pcDNA3.1-myc-his vector) SPGQGTQSENSCTHFPGNLPNMLRDLRDAFSRVKTFFQMKDQLDNLLLKESLLEDFKGYLGCQALSEMIQFYLEEVMPQAENQDPDAKAHVNSLGENLKTLRLRLRRCHRFLPCENKSKAVEQVKNAFNKLQEKGIYKAMSEFDIFINYIEAYMTMKIRN | binds | –
